Reference: IntAct's records for PubMed 20543824

B1: Nuclear RNAi defective-3 protein (Caenorhabditis elegans), Q21691 (parent)
chain: MDLLDKVMGEMGSKPGSTAKKPATSASSTPRTNVWGTAKKPSSQQQPPKPLFTTPGSQQGSLGGRIPKREHTDRTGPDPKRKPLGGLSVPDSFNNFGTFRVQMNAWNLDISKMDERISRIMFRATLVHTDGRRFELSLGVSAFSGDVNRQQRRQAQCLLFRAWFKRNPELFKGMTDPAIAAYDAAETIYVGCSFFDVELTEHVCHLTEADFSPQEWKIVSLISRRSGSTFEIRIKTNPPIYTRGPNALTLENRSELTRIIEAITDQCLHNEKFLLYSSGTFPTKGGDIASPDEVTLIKSGFVKTTKIVDRDGVPDAIMTVDTTKSPFYKDTSLLKFFTAKMDQLTNSGGGPRGHNGGRERRDGGGNSRKYDDRRSPRDGEIDYDERTVSHYQRQFQDERISDGMLNTLKQSLKGLDCQPIHLKDSKANRSIMIDEIHTGTADSVTFEQKLPDGEMKLTSITEYYLQRYNYRLKFPHLPLVTSKRAKCYDFYPMELMSILPGQRIKQSHMTVDIQSYMTGKMSSLPDQHIKQSKLVLTEYLKLGDQPANRQMDAFRVSLKSIQPIVTNAHWLSPPDMKFANNQLYSLNPTRGVRFQTNGKFVMPARVKSVTIINYDKEFNRNVDMFAEGLAKHCSEQGMKFDSRPNSWKKVNLGSSDRRGTKVEIEEAIRNGVTIVFGIIAEKRPDMHDILKYFEEKLGQQTIQISSETADKFMRDHGGKQTIDNVIRKLNPKCGGTNFLIDVPESVGHRVVCNNSAEMRAKLYAKTQFIGFEMSHTGARTRFDIQKVMFDGDPTVVGVAYSLKHSAQLGGFSYFQESRLHKLTNLQEKMQICLNAYEQSSSYLPETVVVYRVGSGEGDYPQIVNEVNEMKLAARKKKHGYNPKFLVICTQRNSHIRVFPEHINERGKSMEQNVKSGTCVDVPGASHGYEEFILCCQTPLIGTVKPTKYTIIVNDCRWSKNEIMNVTYHLAFAHQVSYAPPAIPNVSYAAQNLAKRGHNNYKTHTKLVDMNDYSYRIKEKHEEIISSEEVDDILMRDFIETVSNDLNAMTINGRNFWA
partner: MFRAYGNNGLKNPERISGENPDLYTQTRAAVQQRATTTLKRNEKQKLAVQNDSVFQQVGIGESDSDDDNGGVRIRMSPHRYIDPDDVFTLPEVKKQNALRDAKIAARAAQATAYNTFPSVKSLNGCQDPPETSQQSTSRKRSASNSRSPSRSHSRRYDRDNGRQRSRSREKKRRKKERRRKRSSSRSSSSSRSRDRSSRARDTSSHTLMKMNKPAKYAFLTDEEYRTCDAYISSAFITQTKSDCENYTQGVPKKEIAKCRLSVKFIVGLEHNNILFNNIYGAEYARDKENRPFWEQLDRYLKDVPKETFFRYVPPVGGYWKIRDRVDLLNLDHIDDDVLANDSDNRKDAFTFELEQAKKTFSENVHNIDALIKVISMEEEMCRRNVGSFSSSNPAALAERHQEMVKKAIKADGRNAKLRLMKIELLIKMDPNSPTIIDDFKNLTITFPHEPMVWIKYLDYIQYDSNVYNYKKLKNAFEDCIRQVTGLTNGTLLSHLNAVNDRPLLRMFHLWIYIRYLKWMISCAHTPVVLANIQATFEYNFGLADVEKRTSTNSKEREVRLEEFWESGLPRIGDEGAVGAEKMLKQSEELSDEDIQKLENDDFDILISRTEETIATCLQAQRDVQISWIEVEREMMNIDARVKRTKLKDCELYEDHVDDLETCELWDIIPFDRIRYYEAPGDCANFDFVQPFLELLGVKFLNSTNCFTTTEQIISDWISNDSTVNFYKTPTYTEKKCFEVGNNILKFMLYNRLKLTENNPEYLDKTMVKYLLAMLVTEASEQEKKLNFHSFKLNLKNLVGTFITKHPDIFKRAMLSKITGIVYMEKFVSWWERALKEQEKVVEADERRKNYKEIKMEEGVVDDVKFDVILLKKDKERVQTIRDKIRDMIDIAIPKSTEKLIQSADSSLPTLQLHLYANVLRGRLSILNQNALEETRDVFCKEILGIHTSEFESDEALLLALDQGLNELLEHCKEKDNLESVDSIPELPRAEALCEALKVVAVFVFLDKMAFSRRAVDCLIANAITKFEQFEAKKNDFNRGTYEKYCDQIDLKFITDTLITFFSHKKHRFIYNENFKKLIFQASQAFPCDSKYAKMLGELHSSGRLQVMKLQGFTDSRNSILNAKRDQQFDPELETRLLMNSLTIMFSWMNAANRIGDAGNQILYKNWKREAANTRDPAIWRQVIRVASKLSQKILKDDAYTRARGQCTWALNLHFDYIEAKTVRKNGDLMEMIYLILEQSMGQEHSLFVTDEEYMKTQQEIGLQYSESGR

Variants of: B1
Details: with nrde2_caeel nrde-2, G5EG51

Row | effect of a mutation on the interaction | Variant
1 | disrupting interaction | K80A;R81A;K82A
